Data from the DeepSol protein solubility set.

Test: soluble on expression in E. coli; label from the status in PepcDB or PDB records

| Sequence | soluble on expression in E. coli |
| --- | --- |
| MGSDKIHHHHHHMNGQLLRQIANYQILYSACCKDLGLLRGKIGISLFFFHYAHFCGDSLYSDYANELIGDVYDDIRIDTPWGIRNGLLGIGWGLEYFMQKGFVECGSNDILTELDNKIMERDLRRVKDYSFDTGIEGLAWYVLIRLLSSERYLQKPFDKMYLDDLRGVCENVPNKVCHPGISLLLDYLVGKQIDDWYLVVLGKITSQRTGGEKKEALLWVEGLKYLLR | not soluble |
| MGSDKIHHHHHHLDTIPTTYVDAGSVFGKTGDAEKVLNGGWNYLMETFNSYANPGYGAMLRANDAMGSDVVLNSKYGFRTHNEFSAIYGKGGTNTLSWLLAYRVINDCNGVLDNIDAAEGTQADRNRIKGQALALRGFLYLHLASCYSFAIDKDPDAVCAPIYTQSTDETIAAEGKPASSVSEVYAQSINDLEEALELIPETYVRDAKHKIDNEVVLGILSRACLYARQWEKAKTYSDKLLAKDNYLMTESEYKAGFNSVDNKEWIWGHAQTNDQSNASYQFHYLDTTTKGSYYYSFNVDPYFRDLFEDGDYRKEMLFWATDPGADVESAAYVWMRNSKFRFRDIENQLGDIVLMRVAEIYLINAEAKAHLNDPDAINKLNDLKTARGAKTIHTNLSQQDLLETIWLERRKELWGEGFSLIDIIRNQQTVVRNAYPEGPIDYIYTDENGQTHTLKKKTQGHRFFNFPDKSAFCPNSKYYLYRITDSEELANKNLYKDHPKLSIYTK | not soluble |
| MSEEDWPSPKFREHVIQRLEPELARNRQNAPNLPVPGDARQVEEYVFAKCMSKDEYMRTIAKVINAINCNSKSAAVPSVLQPSQFHSPPCTTAGNTPAGGTPGYRAPVPPDPQPTSAQARNPPVTVATTQASTTPSAPNPPGGLPAPSASATAAVAAAVASFPSPDTSIRPGGQITPGSQAPGGGPTPAPNVPFPNGSSQMNGGPAMGQPPPQMGAPNMGGPPNGYGGYGMMNGPPGSGAPMGGNPYNQQIKKDMDQARPWDPSAHMYQQQPQWGAMPPQQPHGYPGRPMNGQGATPTGPSSVLESLINQPQQYPGHHNQMGPPGDRNVAAQRAAAQQQQQQQQQQQQQRPGMVPNQGMMSSEDQTVYSAKLRNMRGSCDSLRTRARQCRHEGNHEAAHKLEVMLSVLEGKRVVSLEYLNHLEMWIARKQDFLNIAPMSQNQNHMGMNDPMMNGEHAMLGNGQVPNPYGGHPGYGHQQYMGPPPPHMQMHQPPMWHQQQHQQQQRMMPQDHMMMQGGGGPVHGMYRGDMGHDPMTSPVNNHRHAPYPNPAAMRNNMRMPNGPGPIGRDRNSMSGSSMSGPSSGAPSMNPMGTPNQKMGTPGSMGGMSGLDDLNYDDFLPNPTPIDALQPTLHVGQNSMNAGPPVQRSNLNETARKELQILDARFEIDPNHQRHDANHIIVVCKIRNQQFPPLRLVVPTTYPAGNVTVDRAVIDLDAYLYDDLQNSVYERLSRPGLSSITDYLNAWEEQVNQYQNQTSGGLDVAFNVGNDFFYDNLNL | not soluble |
| MEQLNKMAPKDVRALIREGKINGPTAGMSGGYAQANLVVLKKDLAFDFLLFCQRNQKPCPVLDVTEAGSPVPSLLRRMLISRTDFPKYRIYRHGILTEEVSDITPYWEDDFVGFLIGCSFSFEQALINNGIAVRHIDEGTNVSMYKTNIDCFPVGAFHGQMVVSMRPVPERLAVRAAQVTSRFPAVHGGPIHIGNPGAIGIRDLGKPDFGDAVSIRDGEVPVFWACGVTPQAVAMNVKPEMVITHAPGHMLITDIRDESLAVLLEHHHHHH | soluble |
| MAASLWMGDLEPYMDENFISRAFATMGETVMSVKIIRNRLTGIPAGYCFVEFADLATAEKCLHKINGKPLPGATPAKRFKLNYATY | soluble |
| MGHHHHHHSHMQTDIHDEPVNLGFGVQFEPDDLYRLRSQFLPLGKIGGKPSWLNPKNLPKSADLLCNVCEKPLCFLMQVSANGGINDPPHAFHRSLFLFVCRNPSCSRTNDAANLKAFRCQLPRANDYYSFDGPMDPDLDGDVADPRAPADGPGLCRICGCSAAKKCAKCQVARYCSQAHQVIDWPAHKLECAKAATDGSITDEPKNPRNAFCFKEFGVEIDQEYMPANLFDGLSDDEGDEEEEEGNDEDETEEEKKARIREFEKFVKENKGKNADMTKEDLDEATAEQPKDIDFDKFNRLVNLQPDQIIRYKRYGQPLRATGLSELPEVVEPCELCGAPRRFEMQLMPHLLSLIDVDAIGQSIDWASVYVYTCSASCQIADDGYAKEFVAKQDFL | soluble |
| TLAQPVTIREIAEPPKIRLPRHLRQTYIRKVGEQLNLVVPFQGKPRPQVVWTKGGAPLDTSRVHVRTSDFDTVFFVRQAARSDSGEYELSVQIENMKDTATIRIRVVEKAG | soluble |
| MVLLVSQLYGCGDPLPEQRKLSHFDRIKAAGELRVLVRDKRFASSRPASGTAGFERDLLHGFASHLGVRLRFIPANARPVTERLLRGEADFAAMPSRSVAGEVLPTGGPPPFAGVTPVGGWVGALAGGLKGMARNSAQKFNPRMAFAEYSPRRVHTLKWAFPENAGVRGPRALAWMFAEPEGDHLAMMAEHFLRDMCERKGLDPLLDRHFGHNEGADPALDRNLRESYGRQLGKYRRTFVEAAARHGLDWRLLAAVAFQESRWDGHAVSAEGVRGMMMLTGATARELGVDRNNPGQSIHGGARYLKAVWSRLPEEIAEPDRTWFALSAYNLGPGRVETARRLAKKLGRDPNKWAEVKKTLPLVGAGRSGGRFRHPSARGKLTVQYVNRVRHYYDLLVRLEHHHHHH | soluble |
| MGSDKIHHHHHHMKLSGWGRFPNVDCTVRVARSEVDVRAAVAASPLIARGNGRAYGDAALNRGLTLDMTGMDRMLSFEDGVLVAEAGVLLGDIIHTFLPRGWFPMVTPGTKYVSLGGAIAADVHGKNHHLDGSFRSCVDWVDLMGPDGAVTRVTREDDLFDWTLGGMGLTGVILRAQIRLRAVETSFIAQETRALTSLTDTLEAFEDTLDALYSVAWIDCSDGPHHGHSLLLLGRHATPGDLPKRQKPLEVKRRAKLPVPFGAPPFLFRGLWLRALNGIYWRRGAKRAGHTIVDWDSYFYPLDALANWNRLYGRNGFLQFQCALPLETAADGLAALMAEIAASQSGSVLSVLKRFGPQSGHFSFPMPGYTLALDFPANERSLALMERLDAITLAHKGRFYLAKDARMPEAVVKADARAEAFAAMRTQMGLRDRFASEQSERLGL | not soluble |
| MGSDKIHHHHHHMIYKVISKDEFRNFVDALVRANTSYGPRQVDTDRNGEPIYQFMPVSSASEIAFDYTVTTSSAKHFLMPFREELSKFSFRDGDWDQEVKYDAPPIVLVGLRPCDINAINILDEVMLKGPYPSPYYLARRKNTFIIGMDHLPLPDCFCRSMNRHTTDHGFNLFASDIGESYFLSINSSKAFNFLKEFETTEPTEEDDCKLIERRKLIKQSFKTNVEVTGLPVFLDLEFDSPIWKKWGDKCLNCGSCAMVCPTCYCYNVEEHFETNLESSSRQRRLYSCNLIDFAEVTGGHNFRPKNGDRLKYRYYHHYRGFAVNDNQQICVGCNRCGRACLAGINPKDVINDLRLEKESCVTCVSPSPAKT | not soluble |
| MGSDKIHHHHHHMIRLSNENTIFFMDKENVPIASCQSGDTVIFETKDCFSDQITNEEQALTSIDFNRVNPATGPLYVEGARRGDMLEIEILDIKVGKQGVMTAAPGLGALGESLNSPTTKLFPIEGDDVVYSTGLRLPLQPMIGVIGTAPPGEPINNGTPGPHGGNLDTKDIKPGTTVYLPVEVDGALLALGDLHAAMGDGEILICGVEIAGTVTLKVNVKKERMFPLPALKTDTHFMTIASAETLDAAAVQATKNMATFLANRTALSIEEAGMLLSGAGDLYVSQIVNPLKTARFSLALHYFEKLGVDLCN | not soluble |
| MSLDQQSKEQLNIREMTKEDVPQVFDLERRSFNDSSWTIDAFYHEIEQNNFAKYFVLEFEQQIIGYLGLWIVIDQAQITTVAIDDNYRGYGLGQMLLKYGINYASHTCDVMSLEVRVNNKVAQHVYENLGFQYGGKRKNYYGEGEDAMVMWVNLNDEGHHHHHH | soluble |
| MDYLYHPYPSQRMTVFAKNGVVATSQPLAAQAGLDVLKKGGNAIDAAIAAAACLTVVEPTSNGIGGDAFALVWTDGKLYGLNASGYAPKSISIEALKELGYTEMPKYGFAPVTVPGAPAAWAALSKRFGRLPLVETLAPAIAYAENGYPVSPVLGKYWAAAFRTYKEALRGPEFAAWFATFAPGGRAPKIGEVWASPDHAATLRSIAETEAESFYRGELAEKIAAFSKQYGGFLAADDLAEYEPEWVEPISVSYRGYEVWEIPPNGQGIVALMALNIMNGFDVPSVSDVETHHRQIEAMKLAFADGKAYIADRRYMNCSPDELLSESFAAMRRAQIGEEALTPEPGTPPKGGTVYLAAADGEGNMVSFIQSNYMGFGSGLVVPGTGIALHNRGHNFAFDESHPNGLAPRKKPYHTIIPGFLTKGGAPVGPFGVMGGFMQPQGHLQVIMNTVDFDLNPQAALDAPRWQWMEGKTVLVEPHFPRHIAEALARKGHDIRLALDSGLFGRGQIIWRDPDTGVLAAGTEPRTDGAVAAW | not soluble |
| MSQLLQDYLNWENYILRRVDFPTSYVVEGEVVRIEAMPRLYISGMGGSGVVADLIRDFSLTWNWEVEVIAVKDYFLKARDGLLIAVSYSGNTIETLYTVEYAKRRRIPAVAITTGGRLAQMGVPTVIVPKASAPRAALPQLLTAALHVVAKVYGIDVKIPEGLEPPNEALIHKLVEEFQKRPTIIAAESMRGVAYRVKNEFNENAKIEPSVEILPEAHHNWIEGSERAVVALTSPHIPKEHQERVKATVEIVGGSIYAVEMHPKGVLSFLRDVGIASVKLAEIRGVNPLATPRIDALKRRLQ | soluble |
| MQTPHILIVEDELVTRNTLKSIFEAEGYDVFEATDGAEMHQILSEYDINLVIMDINLPGKNGLLLARELREQANVALMFLTGRDNEVDKILGLEIGADDYITKPFNPRELTIRARNLLSRTMQ | soluble |
| MSLNDGNAMGQVIQIDEARIRDHLGEMVRGTVEETLNAMLEAEADQLCGAGRYERSPARQDTRAGSYERTLQTKAGDVNLKVPKLRRQTFETAIIERYRRRESSVEEALIEMYLAGISVRRVEDITEALWGTRVSPSTVSNLNKKIYAKIEAWRNRRIEGEHPYLYLDGIVMKRSWAGEVRNVSLLVASAVNAEGFREILGICEGAKEDKSGWSSFLRHLVDRGLKGVQLVVSDACRGLVESVADYLPEARYQRCMVHFYRNVFSHVPSTRVHEVSHMLKAIHAQESRAAADEKARTVIADLRASRMAKAADLVEQAVHETLAYYAFPDIHWRKIRTNNPLERIMKEIRRRTRVVGAFPDGQSCLNLAAARLRHIAGTAWSTKCYMNMRPLYQPQLSETGAVAEGHHHHHH | soluble |
| MGSSHHHHHHSSGLVPRGSDYMFKLLLIGNSSVGKTSFLFRYADDSFTPAFVSTVGIDFKVKTVYRHDKRIKLQIWDTAGQERYRTITTAYYRGAMGFLLMYDIANQESFAAVQDWATQIKTYSWDNAQVILVGNKCDLEDERVVPAEDGRRLADDLGFEFFEASAKENINVKQVFERLVDVICEKMNE | soluble |
| GSPDPEIFRQRFRQFGYQDSPGPREAVSQLRELCRLWLRPETHTKEQILELVVLEQFVAILPKELQTWVRDHHPENGEEAVTVLEDLESELDD | soluble |
| EVVVVGYGTMKRSDLTGSVASIAAKDVEGFKTSSVAGALGGQIAGVQITSTDGTPGAGFSINIRGVGTLTGDSSPLYIVDGFEVDDIDYLSNSDIESIEVLKDASSSAIYGARAANGVVLITTKSGK | not soluble |
| MGHHHHHHSHEKMNGSHRDQGSSALSGVGGIRLPNGKLKCDICGIICIGPNVLMVHKRSHTGERPFQCNQCGASFTQKGNLLRHIKLHSGEKPFKCHLCNYACRRRDALTGHLRTHSVGKPHKCGYCGRSYKQRSSLEEHKERCHNYLESMGLPGTLYPVIKEETNHSEMAEDLCKIGSERSLVLDRLASNVAKRKSSMP | soluble |
